Target: Strep-tag II-tagged VgrG spike protein of EAEC T6SS-1 (enteroaggregative Escherichia coli (EAEC) 17-2)
Assay: cryo-EM structure; single particle cryo-EM of the co-produced, double-affinity and SEC purified PAAR^FL-^SVgrG-Tle1^H complex; AlphaFold2 model plus PDB 6SJL docked into the maps

Strep-tag II-tagged VgrG spike protein of EAEC T6SS-1 (natural protein)
stoichiometry N: 3

Source: paper PMC10715212
